Assay results published in patent US20240301039A1 (NEW YORK UNIVERSITY IN ABU DHABI, published 2024).

T1: SARS-CoV-2 C14S,C23S,C73S NSP9 (triSer-Nsp9) (SARS-CoV-2, UniProt P0DTC1 4141-4253)
T1 construct: also called NSP (dissolved in ammonium acetate); INS (dissolved in DMSO/PBS)
T1 chain: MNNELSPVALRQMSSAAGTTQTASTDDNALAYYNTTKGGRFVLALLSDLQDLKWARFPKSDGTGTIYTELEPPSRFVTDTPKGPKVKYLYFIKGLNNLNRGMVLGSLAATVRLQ

T2: SARS-CoV-2 C14S,C23S,C73S NSP9 (triSer-NSP9) (SARS-CoV-2, UniProt P0DTC1 4141-4253)
T2 construct: also called NSP (dissolved in ammonium acetate); INS (dissolved in DMSO and diluted in PBS)
T2 chain: T1 chain

B1: 3NSP52 (VHH)
VHH: QVQLQESGGGLVQPEGSLRLSCAASGLTFDSYAIGWFRQAPGKEREFVAASIWSGDSGHYTGSVKGRFTISRDNAKNTVDLQMNSLKPEDTAVYYCAASASFLHSANYHMRAKWGYWGQGTQVTVSS
B2: 2NSP90 (VHH)
VHH: QVQLQESGGGLVQTGDSLRLSCAVSGRTFSTYSVGWFRQAPGKEREFVALRWSGGTTYYADSVVGRFTVSRDNAKNTVYLEMNSLKPEDTAVYYCAADRGSGSYSPTYRWDYWGQGTQVTVSS
B3: 2NSP23 (VHH)
VHH: QVQLQESGGGLVQPGGSLRLSCAASGLAFSMYTMGWFRQAPGKEREFVAMIISSGDSTDYADSVKGRFTISRDNGKNTVYLQMDSLKPEDTAVYYCAAPKFRYYFSTSPGDFDSWGQGTQVTVSS
B4: 2INS61 (VHH)
VHH: QVQLQESGGGLVQAGGSLRLSCAASGSIFSINTMGWYRQAPGKQRELVAAITSGGSTNYADSVKGRFTISRDNAKNTVHLQMNSLKPEDTAVYYCNVVEGWGPPVGYWGQGTQVTVSS
B5: 3INS39 (VHH)
VHH: QVQLQESGGGLVQAGGSLRVSCEVSGIMFGINTMGWYRQAPGKQRELVAHITSSGSTNYADSVKGRFTISRDNAKKTVYLQMNSLKPEDTAVYYCNVVAGWGPPPGYWGQGTQVTVSS
B6: 2INS27 (VHH)
VHH: QVQLQESGGGLVQAGGSLRLSCATSGSIFSSAVMGWYRQAPGNERELVALIGSSDTTDYSNSVKGRFTISRDNAKNTAYLRMNSLKPEDTAVYYCTAVKYGLGGFVYWGQGTQVTVSS
B7: 3NSP29 (VHH)
VHH: QVQLQESGGGLVQAGGSLRLSCAASGRTFSRYAMGWFRQAPGKERESVAAINWSGTSIFYANSVEGRFTISRDNAKNTVYLQLNSLKPEDTAVYYCGVVLNGMPYWGRGTQVTVSS
B8: 2INS64 (VHH)
VHH: QVQLQESGGGLVQVGGSLRLSCAASGSILSINAMGWYRQAPGKQRELVAAITSGGSTNYADSVKGRFTISRDNAKNMLYLQMNSLKPEDTAVYYCHVVTGWGPLDWGQGTQVTVSS
B9: 2INS45 (VHH)
VHH: QVQLQESGGGLVQAGGSLRLSCAASGFTLSSNDMGWYRQAPGKQRELVATITSGLSTNYADSVKGRFTISRDNAKNTVFLQMNSLKIEDTAVYYCEVERGWGPPRDYWGHGTQVTVSS
B10: 3NSP78 (VHH)
VHH: QVQLQESGGGLVQAGGSLRLSCAASGRAFSSYVMGWFRQAPGKEREFVAAIHWTGAATVYVDSVKGRFAISRHNAKNTVYLEMNSLKPEDTAVYYCAADPSGSYWPPKRYDYWGQGTQVTVSS
B11: 2INS69 (VHH)
VHH: QVQLQESGGGLVRAGDSLRLSCAVSGRTFSSVAMGWFRQAPGKEREFVAFISGSTGSVTYYADSVKGRFAISRDNAKNTVYLQMNSLKPEDTAVYDCAAKFTGTFNYQGLYDYWGQGTQVTVSS
B12: 3NSP56 (VHH)
VHH: QVQLQESGGGLVQAGGSLRLSCAASGRTFSRYAMGWFRQAPGKERESVAAINWSGTSIFYANSVEGRFTISRDNAKNTVYLQLNSLKPEDTAVYYCAADLVRNYRLGWGDGVYDHYGQGTQVTVSS

Molecular target: T1, SARS-CoV-2 C14S,C23S,C73S NSP9 …
Assay: ELISA signal on INS over uncoated blocked blank

Binder | INS/control
B1 | 23.6
B2 | 21
B3 | 16.8
B4 | 2.75
B5 | 2.7
B6 | 31.3

Molecular target: T1, SARS-CoV-2 C14S,C23S,C73S NSP9 …
Assay: ELISA signal on NSP over uncoated blocked blank

Binder | NSP/control
B1 | 34.2
B2 | 50.8
B3 | 41.8
B4 | 8.02
B5 | 4.42
B6 | 28.9

Molecular target: T2, SARS-CoV-2 C14S,C23S,C73S NSP9 …
Assay: ELISA signal on INS over uncoated blocked well

Binder | INS/control
B7 | 1.84
B8 | 26.7
B9 | 26.9
B10 | 28.6
B11 | 14.1
B12 | 2.61

Molecular target: T1, SARS-CoV-2 C14S,C23S,C73S NSP9 …
Assay: ELISA, periplasmic extract; Nsp9 in DMSO/PBS (INS) coated

Binder | ELISA INS
B1 | 2
B2 | 1.98
B3 | 1.72
B4 | 1.84
B5 | 2.49
B6 | 3

Molecular target: T2, SARS-CoV-2 C14S,C23S,C73S NSP9 …
Assay: ELISA signal on NSP over uncoated blocked well

Binder | NSP/control
B7 | 3.85
B8 | 45.2
B9 | 45
B10 | 47.2
B11 | 13.8
B12 | 5.47

Molecular target: T1, SARS-CoV-2 C14S,C23S,C73S NSP9 …
Assay: ELISA, periplasmic extract; Nsp9 in ammonium acetate (NSP) coated

Binder | ELISA NSP
B1 | 2.91
B2 | 4.78
B3 | 4.28
B4 | 5.36
B5 | 4.07
B6 | 2.77
